Laboratory results as given in patent US20220162338A1 (SICHUAN KELUN BIOTECH BIOPHARMACEUTICAL, published 2022).

Columns and labels:
[1] = target: T1, human FXIa (activated human coagulation Factor XI) (human, UniProt P03951 19-387; P03951 388-625); test: cell-based or functional assay
[2] = target: T1, human FXIa (activated human coagulation …); test: ELISA, FXIa coated at 1 µg/mL, HRP goat-anti-human detection
[3] = target: T2, human FXI (human coagulation Factor XI) (human, UniProt P03951 19-625); test: BLI (Octet Fortebio), antibody on AHC (anti-human-Fc) sensor, FXI in solution
T2 construct: Bought protein; Biotin-labeled form (HCXI-0150-B) was used in the hybridoma screen; also called FXI protein; FXI antigen
Method: Octet Fortebio® was used for the affinity determination of chimeric and humanized antibodies. […] The data obtained were analyzed by Octet data analysis software.

[4] = target: T1, human FXIa (activated human coagulation …); test: BLI (Octet ForteBio), biotin-labeled antibody on streptavidin sensor, FXIa in solution, bivalent model
Method: (§1) The specific experimental steps were as follows: the streptavidin biosensors was first bound with the biotin-labeled antibody to be tested to reach a response signal value of 0.8 nm, then bound with FXIa protein (3.2, 1.6, 0.8, 0.4, 0.2, 0.1, 0.05, and 0 μg/mL) for 5 minutes, then dissociation was performed for 7 minutes, and the bivalent analysis model was used for all fitting analysis.

[5] = target: T1, human FXIa (activated human coagulation …); test: BLI (Octet ForteBio), ratio of KD against 14E11
Method: as §1

[6] = target: T1, human FXIa (activated human coagulation …); test: BLI (Octet ForteBio), ratio of KD against BAY-1213790
Method: as §1

[7] = target: T1, human FXIa (activated human coagulation …); test: cell-based or functional assay; remark: listed apart in the source
[8] = target: T1, human FXIa (activated human coagulation …); test: cell-based or functional assay; remark: listed apart in the source
[9] = target: T3, human FXI antigen expressed in 293F cells (human, UniProt P03951 19-625, limits assumed); test: ELISA, FXI antigen (293F) coated at 1 µg/mL, HRP goat-anti-human detection
T3 construct: also called FXI antigen (PMD-F11 plasmid cloned into PLVX-IRES-PURO, 293F)

| Kd [3] [nM] | koff [3] [s⁻¹] | kon [3] [M⁻¹ s⁻¹] | Binder | also measured |
| --- | --- | --- | --- | --- |
| 0.374 | 0.00034 | 910000 | BAY-1213790 (antibody, V domains shown) VH: EVQLLESGGGLVQPGGSLRLSCAASGFTFSQYGMDWVRQAPGKGLEWVSGIGPSGGSTVYADSVKGRFTISRDNSKNTLYLQMNSLRAEDTAVYYCTRGGPYYYYGMDVWGQGTTVTVSS VL: DIQMTQSPSSLSASVGDRVTITCQASQDISNYLNWYQQKPGKAPKLLIYDASNLETGVPSRFSGSGSGTDFTFTISSLQPEDIATYYCQQADSFPVTFGGGTKVEIKR | IC50 value (ng/mL), inhibition of the catalytic effect of FXIa on fluorescent substrate I-1575 [1]: 70 ng/mL; EC50 [2]: 6.16 ng/mL; Kd [4]: 1.19 nM; koff [4]: 0.00109 s⁻¹; kon [4]: 918000 M⁻¹ s⁻¹ |
| – | – | – | murine antibody 36G9.10 (antibody, mouse IgG1, V domains shown, also called 36G9.10 murine antibody; murine anti-human FXI/FXIa monoclonal antibody) VH: EVQLQQSGAELVKPGASVKLSCTASGFNIKDTYIHWVKQRPEQGLEWIGRIDPANDNTKYDPKFQGKATITADTSSNTAYLQLSSLTSEDSAVYYCAQDYDGFAMDYWGQGTSVTVSS VL: DIQMTQSPSSLSASLGGKVTITCKASQDINKYITWFQHKPGKGPRLLIHYTSTLQPGIPSRFSGSGSGRDYSFSISNLEPEDSATYYCLQYDYLLTFGGGTKLEIK | fold stronger affinity than 14E11 [5]: 1.7 times; fold stronger affinity than BAY-1213790 [6]: 2.5 times; Kd [4]: 0.48 nM; koff [4]: 0.00072 s⁻¹; kon [4]: 1.5e+06 M⁻¹ s⁻¹ |
| 0.00366 | 2.39e-05 | 6.52e+06 | chimeric antibody 36G9.10-hz00 (antibody, human IgG1, kappa, N297A, V domains shown, Murine variable regions grafted to human IgG1 (N297A) and human kappa constant regions) VH: EVQLQQSGAELVKPGASVKLSCTASGFNIKDTYIHWVKQRPEQGLEWIGRIDPANDNTKYDPKFQGKATITADTSSNTAYLQLSSLTSEDSAVYYCAQDYDGFAMDYWGQGTSVTVSS VL: DIQMTQSPSSLSASLGGKVTITCKASQDINKYITWFQHKPGKGPRLLIHYTSTLQPGIPSRFSGSGSGRDYSFSISNLEPEDSATYYCLQYDYLLTFGGGTKLEIKR | – |
| 0.0103 | 6.51e-05 | 6.31e+06 | humanized antibody 36G9.10-hz73 (antibody, human IgG1, kappa, N297A, V domains shown) VH: EVQLVQSGAEVKKPGATVKISCKASGFNIKDTYIHWVQQAPGKGLEWMGRIDPANDNTIYAEKFQGRVTITADTSTNTAYMELSSLRSEDTAVYYCAQDYDGFAMDYWGQGTLVTVSS VL: DIQMTQSPSSLSASVGDRVTITCKASQDINKYITWFQQKPGKAPKLLIHYTSTLQPGVPSRFSGSGSGRDYTLTISSLQPEDFATYYCLQYDYLLTFGGGTKVEIKR | APTT in human plasma, fold prolongation [7]: 2.2 times; IC50 value (ng/mL), inhibition of the catalytic effect of FXIa on fluorescent substrate I-1575 [1]: 26.2 ng/mL; APTT detection (EC50, nM), sample at 0 days [8]: 18.4 nM; APTT detection (EC50, nM), sample stored at 25° C. for 28 days [8]: 17.4 nM; APTT detection (EC50, nM), sample stored at 40° C. for 14 days [8]: 20.3 nM; APTT detection (EC50, nM), sample stored at 40° C. for 28 days [8]: 26.9 nM; EC50 [2]: 2.49 ng/mL; EC50 [9]: 9.68 ng/mL |
| 0.00881 | 5.34e-05 | 6.06e+06 | humanized antibody 36G9.10-hz93 (antibody, human IgG1, kappa, N297A, V domains shown) VH: EVQLVQSGAEVKKPGATVKISCKASGFNIKDTYIHWVQQAPGKGLEWIGRIDPANDNTKYDPKFQGRVTITADTSTNTAYMELSSLRSEDTAVYYCAQDYDGFAMDYWGQGTLVTVSS VL: DIQMTQSPSSLSASVGDRVTITCKASQDINKYITWFQQKPGKAPKLLIHYTSTLQPGVPSRFSGSGSGRDYTLTISSLQPEDFATYYCLQYDYLLTFGGGTKVEIKR | – |
| 0.0441 | 0.000255 | 5.77e+06 | humanized antibody 36G9.10-hz43 (antibody, human IgG1, kappa, N297A, V domains shown) VH: QVQLVQSGAEVKKPGASVKVSCKASGFNIKDTYIHWVRQAPGQGLEWIGRIDPANDNTNYAQKFQGRVTMTADTSINTAYMELSRLRSDDTAVYYCAQDYDGFAMDYWGQGTLVTVSS VL: DIQMTQSPSSLSASVGDRVTITCKASQDINKYITWFQQKPGKAPKLLIHYTSTLQPGVPSRFSGSGSGRDYTLTISSLQPEDFATYYCLQYDYLLTFGGGTKVEIKR | – |
| 0.0152 | 7.69e-05 | 5.07e+06 | humanized antibody 36G9.10-hz92 (antibody, human IgG1, kappa, N297A, V domains shown) VH: EVQLVQSGAEVKKPGATVKISCKASGFNIKDTYIHWVQQAPGKGLEWIGRIDPANDNTKYDPKFQGRVTITADTSTNTAYMELSSLRSEDTAVYYCAQDYDGFAMDYWGQGTLVTVSS VL: DIQMTQSPSSLSASVGDRVTITCKASQDINKYITWFQQKPGKAPKLLIHYTSTLQPGVPSRFSGSGSGTDFTLTISSLQPEDFATYYCLQYDYLLTFGGGTKVEIKR | – |
| 0.00798 | 5.16e-05 | 6.47e+06 | humanized antibody 36G9.10-hz74 (antibody, human IgG1, kappa, N297A, V domains shown) VH: EVQLVQSGAEVKKPGATVKISCKASGFNIKDTYIHWVQQAPGKGLEWMGRIDPANDNTIYAEKFQGRVTITADTSTNTAYMELSSLRSEDTAVYYCAQDYDGFAMDYWGQGTLVTVSS VL: DIQMTQSPSSLSASVGDRVTITCKASQDINKYITWYQQKPGKAPKLLIYYTSTLQPGVPSRFSGSGSGTDFTFTISSLQPEDIATYYCLQYDYLLTFGGGTKVEIKR | – |
